The DeepSol protein solubility set

Experiment: soluble on expression in E. coli; label from the status in PepcDB or PDB records

| Sequence | soluble on expression in E. coli |
| --- | --- |
| MSLKQEKERILKLVEEGKLTAQEALTLIEKLDSDYKEKEEKITALSVHVHDEEEPFTTAKKESGKPSLGAKLFDWIDSAVKKVKEVDLDLNFGHAYDVQHIFQFKDTDFSSVELQIANGSVNIVPWEDDDIRAECQAKVYRADSQDAARHAFLQHIECEIKGNKFFIRTEKKTMKTNVTLYIPQKEYDKIRVKLFNGPVRGEHLHVKEFSAKTTNGVLSFSYLTAEKAIAETANGQIKLASHSCGTIEAETINGLIDLRGKSESIDVQSFNGNIAINVTESDCRSIYAKTTTGNVELAIPDDLAVKAELKSNLGTLSHELMDVEMLKEKNDTIQKEMMFTSNQAHDQNITVFSESLTGAIKLKYSQREGGSHHHHHH | soluble |
| MEYQLREIDESEKEITQQRKKNSVTTKNFDNLSNSNSQITEMTNEQGVIPLREKDLTINVGDNRNLKVEEFMTNFISNVFENKNALFLYCKYVLLFYGKELLNENNVESLNFEIIKGGITNILVKVEDNIHQNKYLIRLYGPKTSEIINREREKLISNILCDKNISKKIYVFFPNGRIEEFKDGYALSREDIKNKDFQKEIAENLRILHDIQLDDTIYKKLQALQNIQGNRSSFLWSTLWKYFNTLKEERQKKYSFNPKAYILKLIDFDMLESIITEIQELCCKKNSPVVLCHCDLLSSNIIKTEGSSISFIDFEYSCPMERAYDIANHFNEYAGFNCEWDLTPNRSEEYHFIKHYLKTDDEQLINQLIDEIQPFYVCSHIVWGLWALLQGLHSVIDFDFINYGMTRLTAAFSVKFRSKLEKN | not soluble |
| MGHHHHHHSHMGNNSESKGSASDSKGAETFTYKAENGNVKIPKHPKRVVVMADGYYGYFKTLGINVVGAPENVFKNPYYKGKTNGVENIGDGTSVEKVIDLNPDLIIVWTTQGADIKKLEKIAPTVAVKYDKLDNIEQLKEFAKMTGTEDKAEKWLAKWDKKVAAAKTKIKKAVGDKTISIMQTNGKDIYVFGKDFGRGGSIIYKDLGLQATKLTKEKAIDQGPGYTSISLEKLPDFAGDYIFAGPWQSGGDDGGVFESSIWKNLNAVKNGHVYKMDPIGFYFTDPISLEGQLEFITESLTK | soluble |
| MGSDKIHHHHHHVRVLAIRHVEIEDLGMMEDIFREKNWSFDYLDTPKGEKLERPLEEYSLVVLLGGYMGAYEEEKYPFLKYEFQLIEEILKKEIPFLGICLGSQMLAKVLGASVYRGKNGEEIGWYFVEKVSDNKFFREFPDRLRVFQWHGDTFDLPRRATRVFTSEKYENQGFVYGKAVGLQFHIEVGARTMKRWIEAYKDELEKKKIDPRLLLETAEREEKVLKGLLRSLLERMVES | soluble |
| MEQKFCQSCGMPLNPEVLGTEKDGSKNEEYCTYCYADGHFTVECTMDEMINQCAQFVDEFNKGSEVKMTKEEAIANMKQFFPMLKRWKQ | not soluble |
| ARKCSLTGKWTNNLGSIMTIRAVNSRGEFTGTYLTAVADNPGNITLSPLLGIQHKRASQPTFGFTVHWNFSESTTVFTGQCFIDRNGKEVLKTMWLLRSSVNDISYDWIATRVGYNNFTRLSTVEE | soluble |
| MKVYVVVPTYNESDNIVALMEKILAQRDNIHVLVVDDNSPDGTGEIAARMSSDNPRIHVLRRSGKMGLGSAYCDGFRVALRDGADFIIEMDADFSHDPATIPALLAATDKYDVVVGSRYLNGVSVVNWPIRRLMLSYFASVYTRFVTGLALRDCTSGFKCFRRRVIESVDLDTIRSDGYSFQIEMNYRCVERGFRVGEIPIIFIDRHAGSSKMSKKIVREAVLMVWKLKLGSLVKKLTRRGDRHAALEHHHHHH | soluble |
| MSLLNQKIQNPNPDELMIEVDLCYELDPYELKLDEMIEAEPEPEMIEGLPASDALTPADRYLELFEHVQSAKIFPDSKTFPDCAPKMDPLDILIRYRKVRRHRDFDLRKFVENHFWLPEVYSSEYVSDPQNSLKEHIDQLWPVLTREPQDHIPWSSLLALPQSYIVPGGRFSETYYWDSYFTMLGLAESGREDLLKCMADNFAWMIENYGHIPNGNRTYYLSRSQPPVFALMVELFEEDGVRGARRYLDHLKMEYAFWMDGAESLIPNQAYRHVVRMPDGSLLNRYWDDRDTPRDESWLEDVETAKHSGRPPNEVYRDLRAGAASGWDYSSRWLRDTGRLASIRTTQFIPIDLNAFLFKLESAIANISALKGEKETEALFRQKASARRDAVNRYLWDDENGIYRDYDWRREQLALFSAAAIVPLYVGMANHEQADRLANAVRSRLLTPGGILASEYETGEQWDKPNGWAPLQWMAIQGFKMYGDDLLGDEIARSWLKTVNQFYLEQHKLIEKYHIADGVPREGGGGEYPLQDGFGWTNGVVRRLIGLYGEPEGGSHHHHHH | soluble |
| MSLNPVNGAILSIEISHPNGFEIDENISAYHDAEYYMDRIFDSGNYDSLIVLTSIKILSQHWEIDNDMVVTSQSIRQLAIDTINSKAESGTIKNYWFKLQSLCEEFKNLSQETLSLSVFDNQVLTLNVNGHGIFRKSAFFESFANQKLNSADGKLMLIFNKFETFISRKSYHKLHEELLQLRKISANEITNLFTKHIEGKISTNEIQTILKDLEQIPGIVEIVKSLIGSSGFELIVDANSISSKELGAFHKISTVMIFKNIMETHKTLLLDLVVLFLTCETNDQIVEFVNQIRATLVQYDVMEVVFTTCLNKGEVETKNMGQVQNSIFWSSVVATHSQLKRLIESLQLNDGYEYFYNNVLPDDYLVDVVIELINNKEYFFLQKKFLTKLNQEGHHHHHH | not soluble |
| MNNIENVDQKLIENLANLMSSEVRAKIYIYLRKYNKSTVDEIAGGTGIYPSTVRESILDMYNTGYVSREKMDKEGLGKKPYLYTAAAPSEIVRKISKNIQEKLNDLIMVDRRIESKELKIPFVPVKIVVDEKYRD | not soluble |
| MVISLGDDITTVLKTVQQTLFALRDEHEAATRILEANLINSDSSEPSLPSEKMGLIDESLGKVMDGGDEASLLIMMDKLMQSYDVQLSKNHESIRLLRQENTWLLDELTTTQRKLQESERTVAHLEEERDHYKFQDSMNYLNSDFQHTTSVDATPMMVDTLQELGFGPEEEDQNNNQADQGCRSSSFSNPISNDYQLPTRLQTLQNLVIQYMEQGRFEVAIPLCKQALEDVVKVHGNVHLDVATMLNVLAIVYRNQENFKDAAIYLEKALSIRVQCCGENHHSVAATLNNLAIAYGKRGKYKESEPLCKRALEIRKNLLGPNHPDVAKQLTNLGIVTQQLEKYEETENYFKQALSIYNRAFPENHQNVIKTKNQLASVFLKQGKYQEAEEMYKNILSKVAITGNKPIWRIAEDREERQRNGIPKVDDESFNVNPTTVMDSNVMSTIKNLAAVYRKQGKEEAAGTLEEALGAKKQINGGADHTNSTASSVETSSAVAINPAQSGIKKRIMHFVGLNF | not soluble |
| MGLFNNFKFKYTRAQLEIFRFSFCLLAPVAVMYYIGTDTDKKLNVPGFWPDPATLNQIPKEPYEIKAELARMKKERLEKRLRLEKKIQEEFGLDLEEEKEKIKRDLALKKG | soluble |
| MAHHHHHHMNSTTTISADPDGSSLCAASRISTPGTMSVLVPYKRRGQKSSMARGGASPQRRSPQPPYAGKSISTSASTLSSSVQPHGAGAASRGDQSRRGDAAPDGTLNAYSSHPAAPLDRPRDEEFDAVEQRARMALESIATRDEDLEPSMGDHIGVLQSYRTACEARAMYREAYLVQQVLRNLRLEEESRHVRGITEQQMEERRILEEAHRQEFREFHHSWNARIDAFEEEQLEAELALLERQNEELIRFQEEMRNFQPRLLRYSRSLLESRLKQQTLAKQRDYVGAQAQKAHAEAIEVEDIERFEAARMSLFERREYAARHRHQQELYALRTKVESRRLYLERYRKQELDVLLQRYINARRSMESQQNIVRNKTGTLLLKHACNMKTDSSGTAVLVESAGSGAFGTMVQRRQAYELRALQGSPDGASASVRDGSAM | not soluble |
| IGDFEYYIDGMLTFNTNKITEMDELTPDYAYQARTGNRIDQSQLLIWKQWASNPDLIPESYEDAVANPQKYPWNAAGKYKLGNAVFQDTNGDRKIDSYDKVPTGYTNIPELIPTIRLGFSWKGFDARAVLTAYLNRTVPCRENMDYGFGWGGTSTHEITNTWGYYTDDPTDPRNINAKYPRLSTSFSDLDRNYPYNESTIWVVNGDFLSLRNVEVGYSLPARLISKVNMTKCRLYFSGYNLCNWSHLPKGFDPENPTNYIWAYPKTRSFTFGVNIGF | not soluble |
| GPGSMSCEVTMVGRDRDYLHDVQYGSRTFRLADRRIRAPSGLTVRAVDAEPIKDDVGVDAVLSCVPATCLENDGAHTPPMVRCAQNHADAPMLLFTRGFTREGLTPLEQLGRVSQDLPSKLVVVSGPLFAREWAVTSAAACDGGDANRNSGVTLSFALGGKADVELSRSLQSLTERLWRRESVTWLDGPLAAEILSLVNGCVPLCSMGAGLVSSEYPGSVSATMSYLQHATSATEQLVNGVLGLPLGSPLPSCAVATIAMACTNHAAREFVFGRRLDYHFRHRDAIRAVFPAGSHEALDSTVSGLHMLLRRHAMSSPFYEVLMDTFLTLMRASVAGRELVRLGHYEYRHKLRDEDTVLLRHTEVVDEAMLSGDHQRFDDARRALQMAFGDSSCGAPTMPPL | not soluble |
| MGHHHHHHSHMFPQAQESPAAVEVLTQVVHPSAAMASQERAQVAFKKMVQGVLQFAVCDTAAAGQLVKDGVTQVVVSEEGAVHMVAGEGAQIIMQEAQGEHMDLVESDGEISQIIVTEELVQAMVQESSGGFSEGTTHYILTELPPGVQGEPGLYSHTVLETADSQELLQAGATLGTEAGAPSRAEQLASVVIYTQEGSSAAAAIQSQRESSELQEA | not soluble |
| GPGSMLTLRKQTLPVATATLLLQRRGVEYWGSSVTGRTQPYAQGDLIPRVDNMRHVVSKSSSAAANLTGSNLGVAYDSDTIFSVAGYSRAEKEHYRPLRGIARYKIEPMAESDTVAAQGLLEQAEMSKSISFVVSWWGGVLKDFPSLKKVCDDTFKEEFTSFYKSALSVAHDDAAVKALAVPFVRRQMQEHYISFPMFWRIAEKLADAIEKVPQMQKPARSVSRIAVERVTKIALNTIADEPWALDEMTSPLLFDVSNFRAWHEAGNW | not soluble |
| MSLENTDINISALLNVDIDKILKQTIKEKIEKLMEIELNAYLEENPGIKNGKYKRDLKTKYGEIKQLNVPRDRDSNFHTQVIEPYNRSIGMEDLIVSMYSNGISTRRIAGIMEDILGNKYSKSTISRITDLTIEEVYKFINRPLDKRYIAVFLDGLFFYLRRGNVDKEPVIFALGIKETGEYEVLGFYLTVKESHNAYKEVLEDLYNRGLKEPLLIVADGIKNLDEEVMEIYPRSEFQLCTIHYARGLKSNVREKDIDEITIDANKMFKCDNKEEAIIRFNDFKYKWKSKYPKVIYNTEKNLGKLLRFYNYPVNIRKSLKSTNAIERFNGEVRRRVKTISSFPDEDSAMKVFYYKSIEYNSKHAFRKMNGYYKCKDEIKEMFQKREGHHHHHH | not soluble |
| GMGIHQYFQSLSDLENIYRCPGKFKYQEHSVAEHSYKVTSIAQFFGAVEEDAGNEVNWRALYEKALNHDYSELFIGDIKTPVKYATTELREMLSEVEESMTKNFISREIPATFQPIYRHLLKEGKDSTLEGKILAISDKVDLLYESFGEIQKGNPENIFVEIYSEALATIYEYREMASVKYFLKEILPDMLAEKGIEKTELPQLTTEITTKALRDE | soluble |
| MTLDDDDYIKQMELQRKAFESQFGSLESMGFEDKTKNIRTEVDTRDSSGDEIDNSDHGSDFKDGTIESSNSSDEDSGNETAEENNQDSKPKTQPKVIRFNGPSDVYVPPSKKTQKLLRSGKTLTQINKKLESTEAKEEKEDETLEAENLQNDLELQQFLRESHLLSAFNNGGSGSTNSGVSLTLQSMGGGNDDGIVYQDDQVIGKARSRTLEMRLNRLSRVNGHQDKINKLEKVPMHIRRGMIDKHVKRIKKYEQEAAEGGIVLSKVKKGQFRKIESTYKKDIERRIGGSIKARDKEKATKRERGLKISSVGRSTRNGLIVSKRDIARISGGERSGKFNGKKKSRR | not soluble |
| MGKILVLSDIHYPYCDIDEINKIMLSERPSLTVLLGDIIVSKSEDYRNFIDKLKIRKNIIYVKGDEDKFRGDFDLIKIKNNGKRFILLHGHQYFNENNEYSLAKVLKKMNDNIPPLLFCIFFRIMLRNFKDTIILGHSHAL | soluble |
